In US20250283871A1, “COMPOSITIONS AND METHODS FOR MODULATING THE INTERACTION BETWEEN SS18-SSX FUSION ONCOPROTEIN AND NUCLEOSOMES” (Dana-Farber Cancer Institute, Inc., priority 2020, published 2025):
Values joined by “and” are separate entries in the source; they are usually repeats but may differ in a detail not shown here. Equal entries are not always repeated.

How the values were obtained:
[1] = molecular target: cellular chromatin (endogenous nucleosomes; core histones H2A, H2B, H3, H4) (human) (UniProt P0C0S8); assay: cell-based or functional assay
[2] = molecular target: recombinant H2A K119Ub mononucleosomes (UniProt P04908); assay: AlphaLISA; 95% CI 2.3-9.1
[3] = molecular target: recombinant, unmodified mononucleosomes (UniProt P04908); assay: AlphaLISA; 95% CI 9.1-53.3
[4] = molecular target: recombinant H2A K119Ub mononucleosomes (UniProt P04908); assay: AlphaLISA; 95% CI 7.2-48.5
[5] = molecular target: KCNMA1 (tr|A0A1W2PP06|A0A1W2PP06_HUMAN) (human) (UniProt Q12791); assay: HA affinity purification from HEK-293T nuclear extract, mass spectrometry peptide counts
[6] = molecular target: LPGAT1 (sp|Q92604|LGAT1_HUMAN) (human) (UniProt Q92604); assay: as above
[7] = molecular target: LZIC (sp|Q8WZA0|LZIC_HUMAN) (human) (UniProt Q8WZA0); assay: as above
[8] = molecular target: mammalian mononucleosome (HEK293T) carrying histone H3 K79me1 (human (HEK-293T cells)) (UniProt P68431); assay: MBP-SSX1 78aa pull-down of pooled HEK293T mononucleosomes, targeted quantitative histone MS; input c3-c5: 0.268, 0.441, 0.301
[9] = molecular target: mammalian mononucleosome (HEK293T) carrying histone H3 K79me2 (human (HEK-293T cells)) (UniProt P68431); assay: MBP-SSX1 78aa pull-down of pooled HEK293T mononucleosomes, targeted quantitative histone MS; input c3-c5: 0.498, 0.469, 0.455
[10] = molecular target: mammalian mononucleosomes (HEK293T) carrying H2A(12to17)K13ac1 (mammalian (HEK293T)) (UniProt P0C0S8); assay: MBP-SSX1 78aa pull-down, targeted histone MS
[11] = molecular target: mammalian mononucleosomes (HEK293T) carrying H2A(12to17)K15ac1 (mammalian (HEK293T)) (UniProt P0C0S8); assay: MBP-SSX1 78aa pull-down, targeted histone MS
[12] = molecular target: mammalian mononucleosomes (HEK293T) carrying H2A(12to17)ac0 (mammalian (HEK293T)) (UniProt P0C0S8); assay: MBP-SSX1 78aa pull-down, targeted histone MS
[13] = molecular target: mammalian mononucleosomes (HEK293T) carrying H2A(4to11)K5ac1 (mammalian (HEK293T)) (UniProt P0C0S8); assay: MBP-SSX1 78aa pull-down, targeted histone MS
[14] = molecular target: mammalian mononucleosomes (HEK293T) carrying H2A(4to11)K5ac1K9ac1 (mammalian (HEK293T)) (UniProt P0C0S8); assay: MBP-SSX1 78aa pull-down, targeted histone MS
[15] = molecular target: mammalian mononucleosomes (HEK293T) carrying H2A(4to11)K9ac1 (mammalian (HEK293T)) (UniProt P0C0S8); assay: MBP-SSX1 78aa pull-down, targeted histone MS
[16] = molecular target: mammalian mononucleosomes (HEK293T) carrying H2A(4to11)ac0 (mammalian (HEK293T)) (UniProt P0C0S8); assay: MBP-SSX1 78aa pull-down, targeted histone MS
[17] = molecular target: mammalian mononucleosomes (HEK293T) carrying H2AZ(1to19)K4ac1 (mammalian (HEK293T)) (UniProt P0C0S5); assay: MBP-SSX1 78aa pull-down, targeted histone MS
[18] = molecular target: mammalian mononucleosomes (HEK293T) carrying H2AZ(1to19)ac0 (mammalian (HEK293T)) (UniProt P0C0S5); assay: MBP-SSX1 78aa pull-down, targeted histone MS
[19] = molecular target: mammalian mononucleosomes (HEK293T) carrying H2B(1to29)K5ac1 (mammalian (HEK293T)) (UniProt P62807); assay: MBP-SSX1 78aa pull-down, targeted histone MS
[20] = molecular target: mammalian mononucleosomes (HEK293T) carrying H3K4ac1 (mammalian (HEK293T)) (UniProt P68431); assay: MBP-SSX1 78aa pull-down, targeted histone MS
[21] = molecular target: mammalian mononucleosomes (HEK293T) carrying H3K4me1 (mammalian (HEK293T)) (UniProt P68431); assay: MBP-SSX1 78aa pull-down, targeted histone MS
[22] = molecular target: mammalian mononucleosomes (HEK293T) carrying H3K4me2 (mammalian (HEK293T)) (UniProt P68431); assay: MBP-SSX1 78aa pull-down, targeted histone MS
[23] = molecular target: mammalian mononucleosomes (HEK293T) carrying H3K4me3 (mammalian (HEK293T)) (UniProt P68431); assay: MBP-SSX1 78aa pull-down, targeted histone MS
[24] = molecular target: mammalian mononucleosomes (HEK293T) carrying H3K9me1S10ph1K14ac1 (mammalian (HEK293T)) (UniProt P68431); assay: MBP-SSX1 78aa pull-down, targeted histone MS
[25] = molecular target: mammalian mononucleosomes (HEK293T) carrying H3K9me2S10ph1K14ac0 (mammalian (HEK293T)) (UniProt P68431); assay: MBP-SSX1 78aa pull-down, targeted histone MS
[26] = molecular target: mammalian mononucleosomes (HEK293T) carrying H3K9me2S10ph1K14ac1 (mammalian (HEK293T)) (UniProt P68431); assay: MBP-SSX1 78aa pull-down, targeted histone MS
[27] = molecular target: mammalian mononucleosomes (HEK293T) carrying H3K9me3S10ph1K14ac0 (mammalian (HEK293T)) (UniProt P68431); assay: MBP-SSX1 78aa pull-down, targeted histone MS
[28] = molecular target: mammalian mononucleosomes (HEK293T) carrying H4(20to23)K20me0 (mammalian (HEK293T)) (UniProt P62805); assay: MBP-SSX1 78aa pull-down, targeted histone MS
[29] = molecular target: mammalian mononucleosomes (HEK293T) carrying H4(20to23)K20me1 (mammalian (HEK293T)) (UniProt P62805); assay: MBP-SSX1 78aa pull-down, targeted histone MS
[30] = molecular target: mammalian mononucleosomes (HEK293T) carrying H4(20to23)K20me2 (mammalian (HEK293T)) (UniProt P62805); assay: MBP-SSX1 78aa pull-down, targeted histone MS
[31] = molecular target: mammalian mononucleosomes (HEK293T) carrying H4(20to23)K20me3 (mammalian (HEK293T)) (UniProt P62805); assay: MBP-SSX1 78aa pull-down, targeted histone MS
[32] = molecular target: mammalian mononucleosomes (HEK293T) carrying H4(4to17)K12ac1K16ac1me0 (mammalian (HEK293T)) (UniProt P62805); assay: MBP-SSX1 78aa pull-down, targeted histone MS
[33] = molecular target: mammalian mononucleosomes (HEK293T) carrying H4(4to17)K12ac1me0 (mammalian (HEK293T)) (UniProt P62805); assay: MBP-SSX1 78aa pull-down, targeted histone MS
[34] = molecular target: mammalian mononucleosomes (HEK293T) carrying H4(4to17)K16ac1me0 (mammalian (HEK293T)) (UniProt P62805); assay: MBP-SSX1 78aa pull-down, targeted histone MS
[35] = molecular target: mammalian mononucleosomes (HEK293T) carrying H4(4to17)K5ac1K16ac1me0 (mammalian (HEK293T)) (UniProt P62805); assay: MBP-SSX1 78aa pull-down, targeted histone MS
[36] = molecular target: mammalian mononucleosomes (HEK293T) carrying H4(4to17)K5ac1K8ac1K12ac1K16ac1me0 (mammalian (HEK293T)) (UniProt P62805); assay: MBP-SSX1 78aa pull-down, targeted histone MS
[37] = molecular target: mammalian mononucleosomes (HEK293T) carrying H4(4to17)K5ac1K8ac1K12ac1me0 (mammalian (HEK293T)) (UniProt P62805); assay: MBP-SSX1 78aa pull-down, targeted histone MS
[38] = molecular target: mammalian mononucleosomes (HEK293T) carrying H4(4to17)K5ac1K8ac1K16ac1me0 (mammalian (HEK293T)) (UniProt P62805); assay: MBP-SSX1 78aa pull-down, targeted histone MS
[39] = molecular target: mammalian mononucleosomes (HEK293T) carrying H4(4to17)K5ac1K8ac1me0 (mammalian (HEK293T)) (UniProt P62805); assay: MBP-SSX1 78aa pull-down, targeted histone MS
[40] = molecular target: mammalian mononucleosomes (HEK293T) carrying H4(4to17)K5ac1me0 (mammalian (HEK293T)) (UniProt P62805); assay: MBP-SSX1 78aa pull-down, targeted histone MS
[41] = molecular target: mammalian mononucleosomes (HEK293T) carrying H4(4to17)K8ac1K12ac1K16ac1me0 (mammalian (HEK293T)) (UniProt P62805); assay: MBP-SSX1 78aa pull-down, targeted histone MS
[42] = molecular target: mammalian mononucleosomes (HEK293T) carrying H4(4to17)K8ac1K12ac1me0 (mammalian (HEK293T)) (UniProt P62805); assay: MBP-SSX1 78aa pull-down, targeted histone MS
[43] = molecular target: mammalian mononucleosomes (HEK293T) carrying H4(4to17)ac0me0 (mammalian (HEK293T)) (UniProt P62805); assay: MBP-SSX1 78aa pull-down, targeted histone MS
[44] = molecular target: TSP1_HUMAN Thrombospondin-1 (human) (UniProt P07996); assay: anti-SMARCA4 (BRG1) IP, mass spectrometry, human fibroblasts
[45] = molecular target: cellular chromatin (endogenous nucleosomes; core histones H2A, H2B, H3, H4) (human) (UniProt P0C0S8); assay: differential salt extraction, immunoblot

Substance: GFP-SS18 WT (from UniProt Q15532 2-418)
- FRAP recovery half-time [1]: 10.1 s

Substance: GFP-SS18-SSX1
- FRAP recovery half-time [1]: 33.9 s

Substance: GST-SSX1 (78aa) (from UniProt Q16384 111-188)
- EC50 [2]: 4.6 nM
- EC50 [3]: 22.1 nM

Substance: GST-SSXdel7aa (acidic C-term DPEEDDE-->AAAAAAA) (from UniProt Q16384 111-181)
- EC50 [4]: 18.7 nM

Substance: HA-SS18 WT (from UniProt Q15532 1-387)
- Total peptides [5]: 1 peptides
- Unique peptides [5]: 1 peptides
- Total peptides [6]: 1 peptides
- Unique peptides [6]: 1 peptides
- Total peptides [7]: 1 peptides
- Unique peptides [7]: 1 peptides

Substance: MBP-SSX1 78aa (from UniProt Q16384 111-188)
- log2norm (Light/Heavy) intensity ratio normalized to histone norm peptide [8]: 0.954 log2 and 0.54 log2
- log2norm (Light/Heavy) intensity ratio normalized to histone norm peptide [9]: 0.826 log2 and 0.557 log2

Substance: MBP-SSX1 78aa protein (from UniProt Q16384 111-188)
- log2norm (Light/Heavy) intensity ratio [10]: 0.032 log2 and -0.047 log2
- log2norm (Light/Heavy) intensity ratio [11]: 0.042 log2 and -0.086 log2
- log2norm (Light/Heavy) intensity ratio [12]: 0.201 log2 and -0.12 log2
- log2norm (Light/Heavy) intensity ratio [13]: 0.569 log2 and 0.624 log2
- log2norm (Light/Heavy) intensity ratio [14]: -0.031 log2 and -0.049 log2
- log2norm (Light/Heavy) intensity ratio [15]: -0.254 log2 and -0.375 log2
- log2norm (Light/Heavy) intensity ratio [16]: -0.026 log2 and 0.061 log2
- log2norm (Light/Heavy) intensity ratio [17]: -0.217 log2 and 0.048 log2
- log2norm (Light/Heavy) intensity ratio [18]: -0.784 log2 and -0.697 log2
- log2norm (Light/Heavy) intensity ratio [19]: 0.273 log2 and 0.323 log2
- log2norm (Light/Heavy) intensity ratio [20]: 0.263 log2 and 0.32 log2
- log2norm (Light/Heavy) intensity ratio [21]: 0.74 log2 and 0.353 log2
- log2norm (Light/Heavy) intensity ratio [22]: 0.778 log2 and 0.532 log2
- log2norm (Light/Heavy) intensity ratio [23]: 0.766 log2 and 0.505 log2
- log2norm (Light/Heavy) intensity ratio [24]: -2.67 log2 and -2.51 log2
- log2norm (Light/Heavy) intensity ratio [25]: -0.683 log2 and -1.09 log2
- log2norm (Light/Heavy) intensity ratio [26]: -0.87 log2 and -1.01 log2
- log2norm (Light/Heavy) intensity ratio [27]: -0.566 log2 and -1.03 log2
- log2norm (Light/Heavy) intensity ratio [28]: 0.017 log2 and 0.092 log2
- log2norm (Light/Heavy) intensity ratio [29]: -0.427 log2 and -0.443 log2
- log2norm (Light/Heavy) intensity ratio [30]: -0.414 log2 and -0.391 log2
- log2norm (Light/Heavy) intensity ratio [31]: -0.109 log2 and 0.055 log2
- log2norm (Light/Heavy) intensity ratio [32]: 0.204 log2 and 0.304 log2
- log2norm (Light/Heavy) intensity ratio [33]: -0.207 log2 and -0.275 log2
- log2norm (Light/Heavy) intensity ratio [34]: -0.391 log2 and -0.337 log2
- log2norm (Light/Heavy) intensity ratio [35]: 0.226 log2 and 0.367 log2
- log2norm (Light/Heavy) intensity ratio [36]: 0.276 log2 and 0.245 log2
- log2norm (Light/Heavy) intensity ratio [37]: -0.223 log2 and -0.27 log2
- log2norm (Light/Heavy) intensity ratio [38]: 0.474 log2 and 0.311 log2
- log2norm (Light/Heavy) intensity ratio [39]: 0.107 log2 and 0.094 log2
- log2norm (Light/Heavy) intensity ratio [40]: -0.053 log2 and 0.075 log2
- log2norm (Light/Heavy) intensity ratio [41]: 0.677 log2 and 0.625 log2
- log2norm (Light/Heavy) intensity ratio [42]: -0.198 log2 and -0.093 log2
- log2norm (Light/Heavy) intensity ratio [43]: -0.613 log2 and -0.573 log2

Substance: SMCA4_HUMAN Transcription activator BRG1 (from UniProt P51532 1-1647)
- NSAF [44]: 0.000217

Substance: SS18-SSX-bound BAF complexes (HA-SS18-SSX1 purification)
- NaCl concentration of elution from chromatin [45]: > 1 M

Substance: wild-type SS18-bound BAF complexes (HA-SS18 WT purification) (from UniProt Q15532 1-387)
- NaCl concentration of elution from chromatin [45]: 0.3 to 0.5 M
